{"source": "paper PMC2791401", "biological_target": "p190RhoGAP-A (endogenous) (human (endogenous in HeLa)) (UniProt Q9NRY4)", "sequence (Q9NRY4 whole entry)": "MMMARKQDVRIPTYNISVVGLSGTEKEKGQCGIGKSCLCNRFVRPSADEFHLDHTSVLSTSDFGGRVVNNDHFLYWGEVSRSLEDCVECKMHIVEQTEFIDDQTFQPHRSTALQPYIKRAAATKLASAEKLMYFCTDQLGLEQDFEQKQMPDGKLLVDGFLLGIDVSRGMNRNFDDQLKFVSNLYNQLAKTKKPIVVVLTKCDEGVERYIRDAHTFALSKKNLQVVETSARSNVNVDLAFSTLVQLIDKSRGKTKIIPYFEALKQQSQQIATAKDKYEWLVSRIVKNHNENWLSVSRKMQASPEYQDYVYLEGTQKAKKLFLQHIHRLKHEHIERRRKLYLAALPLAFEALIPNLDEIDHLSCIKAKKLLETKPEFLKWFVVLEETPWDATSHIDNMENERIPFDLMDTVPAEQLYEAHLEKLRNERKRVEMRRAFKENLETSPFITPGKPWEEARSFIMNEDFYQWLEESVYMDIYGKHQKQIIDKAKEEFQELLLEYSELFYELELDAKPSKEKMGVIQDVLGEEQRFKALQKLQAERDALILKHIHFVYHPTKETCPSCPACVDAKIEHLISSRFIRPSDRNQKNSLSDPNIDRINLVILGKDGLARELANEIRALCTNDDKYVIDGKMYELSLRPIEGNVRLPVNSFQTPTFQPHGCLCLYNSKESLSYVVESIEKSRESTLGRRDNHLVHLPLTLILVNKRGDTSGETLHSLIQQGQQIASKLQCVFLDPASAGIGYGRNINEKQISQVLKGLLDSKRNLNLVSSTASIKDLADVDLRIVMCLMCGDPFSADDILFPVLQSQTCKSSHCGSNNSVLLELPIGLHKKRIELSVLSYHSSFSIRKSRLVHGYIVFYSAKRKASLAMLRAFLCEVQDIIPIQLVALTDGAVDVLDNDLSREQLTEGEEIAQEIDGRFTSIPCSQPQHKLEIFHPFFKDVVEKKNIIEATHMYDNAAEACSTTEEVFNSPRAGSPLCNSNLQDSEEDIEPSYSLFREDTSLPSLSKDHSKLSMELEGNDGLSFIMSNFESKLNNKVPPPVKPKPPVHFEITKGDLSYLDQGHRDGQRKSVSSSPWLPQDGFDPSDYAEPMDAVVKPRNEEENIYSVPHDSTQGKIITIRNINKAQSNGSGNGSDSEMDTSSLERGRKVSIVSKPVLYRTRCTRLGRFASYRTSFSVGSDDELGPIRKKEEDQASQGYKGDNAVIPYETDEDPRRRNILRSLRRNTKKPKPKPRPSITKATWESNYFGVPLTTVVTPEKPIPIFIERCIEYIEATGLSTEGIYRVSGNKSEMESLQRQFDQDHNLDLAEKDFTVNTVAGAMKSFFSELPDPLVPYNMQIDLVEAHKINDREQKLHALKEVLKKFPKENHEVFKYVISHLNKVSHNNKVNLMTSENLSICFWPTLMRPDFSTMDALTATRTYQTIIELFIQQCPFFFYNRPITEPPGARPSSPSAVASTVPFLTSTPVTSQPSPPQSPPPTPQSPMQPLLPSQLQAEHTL", "experiment": "co-IP"}
{"substance": "FLAG-tagged ECT2C (amino acids 414-883) (domain or fragment)", "values": [{"measurement": "IP/Total (amount co-immunoprecipitated by anti-p190 vs. total protein expressed)", "result": 1.5}]}
{"substance": "FLAG-tagged wild type ECT2 (pCEV29F3-ECT2) (natural protein)", "values": [{"measurement": "abundance of the complex, percent of total p190 or ECT2", "result": "2 to 4", "unit": "%"}]}
{"substance": "FLAG-tagged ECT2N (amino acids 1-334) (domain or fragment)", "values": [{"measurement": "IP/WL (amount co-immunoprecipitated by anti-p190 vs. total protein expressed)", "result": 0.2}]}
